Patent US20140024061

Key:
SEQ ID NO: 12 peptide = target: T1, SEQ ID NO: 12 peptide
T1 chain: EVLKNLLEKLLEKLKELF

SEQ ID NO: 13 peptide = target: T2, SEQ ID NO: 13 peptide
T2 chain: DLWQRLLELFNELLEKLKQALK

SEQ ID NO: 14 peptide = target: T3, SEQ ID NO: 14 peptide
T3 chain: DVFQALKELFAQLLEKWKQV

SEQ ID NO: 2 peptide = target: T4, SEQ ID NO: 2 peptide
T4 chain: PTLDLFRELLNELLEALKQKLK

SEQ ID NO: 3 peptide = target: T5, SEQ ID NO: 3 peptide
T5 chain: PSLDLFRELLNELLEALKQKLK

SEQ ID NO: 4 peptide = target: T6, SEQ ID NO: 4 peptide
T6 chain: PVLDLFRELLNELLQKLKK

SEQ ID NO: 5 peptide = target: T7, SEQ ID NO: 5 peptide
T7 chain: PTLDLFRELLNELLQKLKK

SEQ ID NO: 6 peptide = target: T8, SEQ ID NO: 6 peptide
T8 chain: PVLDLFRELLEELLQKLKK

B1: recombinant human LCAT (lecithin:cholesterol acyltransferase) (protein)
chain: FWLLNVLFPPHTTPKAELSNHTRPVILVPGCLGNQLEAKLDKPDVVNWMCYRKTEDFFTIWLDLNMFLPLGVDCWIDNTRVVYNRSSGLVSNAPGVQIRVPGFGKTYSVEYLDSSKLAGYLHTLVQNLVNNGYVRDETVRAAPYDWRLEPGQQEEYYRKLAGLVEEMHAAYGKPVFLIGHSLGCLHLLYFLLRQPQAWKDRFIDGFISLGAPWGGSIKPMLVLASGDNQGIPIMSSIKLKEEQRITTTSPWMFPSRMAWPEDHVFISTPSFNYTGRDFQRFFADLHFEEGWYMWLQSRDLLAGLPAPGVEVYCLYGVGLPTPRTYIYDHGFPYTDPVGVLYEDGDDTVATRSTELCGLWQGRQPQPVHLLPLHGIQHLNMVFSNLTLEHINAILLGAYRQGPPASPTASPEPPPPE
Q: With B1 as the protein, how does the RELATIVE ACTIVITY (Percent activity relative to SEQ ID: 1); DHE esterification by rhLCAT with peptide mHDL substrate (SEQ ID NO: 12 peptide) read?
A: The RELATIVE ACTIVITY (Percent activity relative to SEQ ID: 1); DHE esterification by rhLCAT with peptide mHDL substrate was 21%.

Q: And the RELATIVE ACTIVITY (Percent activity relative to SEQ ID: 1); DHE esterification by rhLCAT with peptide mHDL substrate (SEQ ID NO: 13 peptide)?
A: Its RELATIVE ACTIVITY (Percent activity relative to SEQ ID: 1); DHE esterification by rhLCAT with peptide mHDL substrate is 0%.

Q: What about the RELATIVE ACTIVITY (Percent activity relative to SEQ ID: 1); DHE esterification by rhLCAT with peptide mHDL substrate (SEQ ID NO: 14 peptide) of the same protein?
A: The RELATIVE ACTIVITY (Percent activity relative to SEQ ID: 1); DHE esterification by rhLCAT with peptide mHDL substrate was 0%.

Q: And the RELATIVE ACTIVITY (Percent activity relative to SEQ ID: 1); DHE esterification by rhLCAT with peptide mHDL substrate (SEQ ID NO: 2 peptide)?
A: The RELATIVE ACTIVITY (Percent activity relative to SEQ ID: 1); DHE esterification by rhLCAT with peptide mHDL substrate was 94%.

Q: What about the RELATIVE ACTIVITY (Percent activity relative to SEQ ID: 1); DHE esterification by rhLCAT with peptide mHDL substrate (SEQ ID NO: 3 peptide) of the same protein?
A: The RELATIVE ACTIVITY (Percent activity relative to SEQ ID: 1); DHE esterification by rhLCAT with peptide mHDL substrate was 87%.

Q: What about the RELATIVE ACTIVITY (Percent activity relative to SEQ ID: 1); DHE esterification by rhLCAT with peptide mHDL substrate (SEQ ID NO: 4 peptide) of the same protein?
A: The RELATIVE ACTIVITY (Percent activity relative to SEQ ID: 1); DHE esterification by rhLCAT with peptide mHDL substrate was 86%.

Q: And the RELATIVE ACTIVITY (Percent activity relative to SEQ ID: 1); DHE esterification by rhLCAT with peptide mHDL substrate (SEQ ID NO: 5 peptide)?
A: Its RELATIVE ACTIVITY (Percent activity relative to SEQ ID: 1); DHE esterification by rhLCAT with peptide mHDL substrate is 65%.

Q: And the RELATIVE ACTIVITY (Percent activity relative to SEQ ID: 1); DHE esterification by rhLCAT with peptide mHDL substrate (SEQ ID NO: 6 peptide)?
A: The RELATIVE ACTIVITY (Percent activity relative to SEQ ID: 1); DHE esterification by rhLCAT with peptide mHDL substrate was 65%.
